From the Human Domainome abundance scans (Beltran et al. 2025)
± gives the uncertainty stated by the source.

B1: GA-binding protein alpha chain, residues 172 to 250; numbered along this chain, Q06546 (parent)
chain: GYRKEQERLGIPYDPIQWSTDQVLHWVVWVMKEFSMTDIDLTTLNISGRELCSLNQEDFFQRVPRGEILWSHLELLRKY

Variants of: B1
Test: abundance fitness (aPCA) (normalised: wild type 0, dead -1); higher = more abundant; growth selection in yeast, the domain comes from the species named
Conditions: Homo sapiens

Variant | abundance fitness
GYRKEQERLGIPYDPIQWSTDQRLHWVVWVMKEFSMTDIDLTTLNISGRELCSLNQEDFFQRVPRGEILWSHLELLRKY | -0.724 ± 0.066
GYRKEQERLGIPYDPIQWSTDQKLHWVVWVMKEFSMTDIDLTTLNISGRELCSLNQEDFFQRVPRGEILWSHLELLRKY | -0.791 ± 0.14
GYRKEQERLGIPYDPIQWSTDQLLHWVVWVMKEFSMTDIDLTTLNISGRELCSLNQEDFFQRVPRGEILWSHLELLRKY | -0.746 ± 0.058
GYRKEQERLGIPYDPIQWSTDQDLHWVVWVMKEFSMTDIDLTTLNISGRELCSLNQEDFFQRVPRGEILWSHLELLRKY | -0.873 ± 0.062
GYRKEQERLGIPYDPIQWSTDQHLHWVVWVMKEFSMTDIDLTTLNISGRELCSLNQEDFFQRVPRGEILWSHLELLRKY | -0.966 ± 0.2
GYRKEQERLGIPYDPIQWSTDQQLHWVVWVMKEFSMTDIDLTTLNISGRELCSLNQEDFFQRVPRGEILWSHLELLRKY | -0.9 ± 0.13
GYRKEQERLGIPYDPIQWSTDQPLHWVVWVMKEFSMTDIDLTTLNISGRELCSLNQEDFFQRVPRGEILWSHLELLRKY | -0.909 ± 0.091
GYRKEQERLGIPYDPIQWSTDQMLHWVVWVMKEFSMTDIDLTTLNISGRELCSLNQEDFFQRVPRGEILWSHLELLRKY | -0.844 ± 0.15
GYRKEQERLGIPYDPIQWSTDQYLHWVVWVMKEFSMTDIDLTTLNISGRELCSLNQEDFFQRVPRGEILWSHLELLRKY | -0.804 ± 0.22
GYRKEQERLGIPYDPIQWSTDQSLHWVVWVMKEFSMTDIDLTTLNISGRELCSLNQEDFFQRVPRGEILWSHLELLRKY | -0.839 ± 0.067
GYRKEQERLGIPYDPIQWSTDQFLHWVVWVMKEFSMTDIDLTTLNISGRELCSLNQEDFFQRVPRGEILWSHLELLRKY | -0.89 ± 0.16
GYRKEQERLGIPYDPIQWSTDQTLHWVVWVMKEFSMTDIDLTTLNISGRELCSLNQEDFFQRVPRGEILWSHLELLRKY | -0.058 ± 0.037
GYRKEQERLGIPYDPIQWSTDQELHWVVWVMKEFSMTDIDLTTLNISGRELCSLNQEDFFQRVPRGEILWSHLELLRKY | -0.951 ± 0.18
GYRKEQERLGIPYDPIQWSTDQILHWVVWVMKEFSMTDIDLTTLNISGRELCSLNQEDFFQRVPRGEILWSHLELLRKY | -0.794 ± 0.14
GYRKEQERLGIPYDPIQWSTDQALHWVVWVMKEFSMTDIDLTTLNISGRELCSLNQEDFFQRVPRGEILWSHLELLRKY | -0.575 ± 0.06
GYRKEQERLGIPYDPIQWSTDQCLHWVVWVMKEFSMTDIDLTTLNISGRELCSLNQEDFFQRVPRGEILWSHLELLRKY | -0.53 ± 0.08
GYRKEQERLGIPYDPIQWSTDQGLHWVVWVMKEFSMTDIDLTTLNISGRELCSLNQEDFFQRVPRGEILWSHLELLRKY | -0.982 ± 0.08
GYRKEQERLGIPYDPIQWSTDQWLHWVVWVMKEFSMTDIDLTTLNISGRELCSLNQEDFFQRVPRGEILWSHLELLRKY | -1.04 ± 0.16
GYRKEQERLGIPYDPIQWSTDQVLFWVVWVMKEFSMTDIDLTTLNISGRELCSLNQEDFFQRVPRGEILWSHLELLRKY | -0.194 ± 0.09
GYRKEQERLGIPYDPIQWSTDQVLQWVVWVMKEFSMTDIDLTTLNISGRELCSLNQEDFFQRVPRGEILWSHLELLRKY | -0.304 ± 0.067
GYRKEQERLGIPYDPIQWSTDQVLLWVVWVMKEFSMTDIDLTTLNISGRELCSLNQEDFFQRVPRGEILWSHLELLRKY | -0.167 ± 0.041
GYRKEQERLGIPYDPIQWSTDQVLRWVVWVMKEFSMTDIDLTTLNISGRELCSLNQEDFFQRVPRGEILWSHLELLRKY | -0.304 ± 0.035
GYRKEQERLGIPYDPIQWSTDQVLMWVVWVMKEFSMTDIDLTTLNISGRELCSLNQEDFFQRVPRGEILWSHLELLRKY | -0.303 ± 0.079

Variant | abundance fitness
GYRKEQERLGIPYDPIQWSTDQVLPWVVWVMKEFSMTDIDLTTLNISGRELCSLNQEDFFQRVPRGEILWSHLELLRKY | -0.942 ± 0.1
GYRKEQERLGIPYDPIQWSTDQVLSWVVWVMKEFSMTDIDLTTLNISGRELCSLNQEDFFQRVPRGEILWSHLELLRKY | -0.27 ± 0.042
GYRKEQERLGIPYDPIQWSTDQVLDWVVWVMKEFSMTDIDLTTLNISGRELCSLNQEDFFQRVPRGEILWSHLELLRKY | -0.209 ± 0.084
GYRKEQERLGIPYDPIQWSTDQVLVWVVWVMKEFSMTDIDLTTLNISGRELCSLNQEDFFQRVPRGEILWSHLELLRKY | -0.219 ± 0.033
GYRKEQERLGIPYDPIQWSTDQVLNWVVWVMKEFSMTDIDLTTLNISGRELCSLNQEDFFQRVPRGEILWSHLELLRKY | -0.048 ± 0.07
GYRKEQERLGIPYDPIQWSTDQVLWWVVWVMKEFSMTDIDLTTLNISGRELCSLNQEDFFQRVPRGEILWSHLELLRKY | -0.393 ± 0.048
GYRKEQERLGIPYDPIQWSTDQVLIWVVWVMKEFSMTDIDLTTLNISGRELCSLNQEDFFQRVPRGEILWSHLELLRKY | -0.138 ± 0.095
GYRKEQERLGIPYDPIQWSTDQVLAWVVWVMKEFSMTDIDLTTLNISGRELCSLNQEDFFQRVPRGEILWSHLELLRKY | -0.25 ± 0.039
GYRKEQERLGIPYDPIQWSTDQVLCWVVWVMKEFSMTDIDLTTLNISGRELCSLNQEDFFQRVPRGEILWSHLELLRKY | -0.266 ± 0.054
GYRKEQERLGIPYDPIQWSTDQVLGWVVWVMKEFSMTDIDLTTLNISGRELCSLNQEDFFQRVPRGEILWSHLELLRKY | -0.207 ± 0.031
GYRKEQERLGIPYDPIQWSTDQVLTWVVWVMKEFSMTDIDLTTLNISGRELCSLNQEDFFQRVPRGEILWSHLELLRKY | -0.12 ± 0.054
GYRKEQERLGIPYDPIQWSTDQVLYWVVWVMKEFSMTDIDLTTLNISGRELCSLNQEDFFQRVPRGEILWSHLELLRKY | -0.002 ± 0.071
GYRKEQERLGIPYDPIQWSTDQVLHIVVWVMKEFSMTDIDLTTLNISGRELCSLNQEDFFQRVPRGEILWSHLELLRKY | -0.804 ± 0.19
GYRKEQERLGIPYDPIQWSTDQVLHAVVWVMKEFSMTDIDLTTLNISGRELCSLNQEDFFQRVPRGEILWSHLELLRKY | -0.904 ± 0.079
GYRKEQERLGIPYDPIQWSTDQVLHHVVWVMKEFSMTDIDLTTLNISGRELCSLNQEDFFQRVPRGEILWSHLELLRKY | -0.822 ± 0.16
GYRKEQERLGIPYDPIQWSTDQVLHLVVWVMKEFSMTDIDLTTLNISGRELCSLNQEDFFQRVPRGEILWSHLELLRKY | -0.886 ± 0.082
GYRKEQERLGIPYDPIQWSTDQVLHFVVWVMKEFSMTDIDLTTLNISGRELCSLNQEDFFQRVPRGEILWSHLELLRKY | -0.404 ± 0.12
GYRKEQERLGIPYDPIQWSTDQVLHCVVWVMKEFSMTDIDLTTLNISGRELCSLNQEDFFQRVPRGEILWSHLELLRKY | -0.866 ± 0.096
GYRKEQERLGIPYDPIQWSTDQVLHMVVWVMKEFSMTDIDLTTLNISGRELCSLNQEDFFQRVPRGEILWSHLELLRKY | -0.976 ± 0.14
GYRKEQERLGIPYDPIQWSTDQVLHEVVWVMKEFSMTDIDLTTLNISGRELCSLNQEDFFQRVPRGEILWSHLELLRKY | -1 ± 0.15
GYRKEQERLGIPYDPIQWSTDQVLHKVVWVMKEFSMTDIDLTTLNISGRELCSLNQEDFFQRVPRGEILWSHLELLRKY | -0.906 ± 0.19
GYRKEQERLGIPYDPIQWSTDQVDHWVVWVMKEFSMTDIDLTTLNISGRELCSLNQEDFFQRVPRGEILWSHLELLRKY | -0.171 ± 0.11
GYRKEQERLGIPYDPIQWSTDQVFHWVVWVMKEFSMTDIDLTTLNISGRELCSLNQEDFFQRVPRGEILWSHLELLRKY | -0.119 ± 0.072

Variant | abundance fitness
GYRKEQERLGIPYDPIQWSTDQVYHWVVWVMKEFSMTDIDLTTLNISGRELCSLNQEDFFQRVPRGEILWSHLELLRKY | -0.278 ± 0.15
GYRKEQERLGIPYDPIQWSTDQVEHWVVWVMKEFSMTDIDLTTLNISGRELCSLNQEDFFQRVPRGEILWSHLELLRKY | -0.088 ± 0.055
GYRKEQERLGIPYDPIQWSTDQVTHWVVWVMKEFSMTDIDLTTLNISGRELCSLNQEDFFQRVPRGEILWSHLELLRKY | -0.056 ± 0.062
GYRKEQERLGIPYDPIQWSTDQVNHWVVWVMKEFSMTDIDLTTLNISGRELCSLNQEDFFQRVPRGEILWSHLELLRKY | -0.075 ± 0.087
GYRKEQERLGIPYDPIQWSTDQVIHWVVWVMKEFSMTDIDLTTLNISGRELCSLNQEDFFQRVPRGEILWSHLELLRKY | -0.091 ± 0.064
GYRKEQERLGIPYDPIQWSTDQVHHWVVWVMKEFSMTDIDLTTLNISGRELCSLNQEDFFQRVPRGEILWSHLELLRKY | 0.029 ± 0.069
GYRKEQERLGIPYDPIQWSTDQVKHWVVWVMKEFSMTDIDLTTLNISGRELCSLNQEDFFQRVPRGEILWSHLELLRKY | -0.038 ± 0.085
GYRKEQERLGIPYDPIQWSTDQVSHWVVWVMKEFSMTDIDLTTLNISGRELCSLNQEDFFQRVPRGEILWSHLELLRKY | -0.104 ± 0.042
GYRKEQERLGIPYDPIQWSTDQVMHWVVWVMKEFSMTDIDLTTLNISGRELCSLNQEDFFQRVPRGEILWSHLELLRKY | -0.011 ± 0.038
GYRKEQERLGIPYDPIQWSTDQVCHWVVWVMKEFSMTDIDLTTLNISGRELCSLNQEDFFQRVPRGEILWSHLELLRKY | 0.003 ± 0.046
GYRKEQERLGIPYDPIQWSTDQVPHWVVWVMKEFSMTDIDLTTLNISGRELCSLNQEDFFQRVPRGEILWSHLELLRKY | -1 ± 0.13
GYRKEQERLGIPYDPIQWSTDQVAHWVVWVMKEFSMTDIDLTTLNISGRELCSLNQEDFFQRVPRGEILWSHLELLRKY | -0.083 ± 0.044
GYRKEQERLGIPYDPIQWSTDQVGHWVVWVMKEFSMTDIDLTTLNISGRELCSLNQEDFFQRVPRGEILWSHLELLRKY | -0.109 ± 0.03
GYRKEQERLGIPYDPIQWSTDWVLHWVVWVMKEFSMTDIDLTTLNISGRELCSLNQEDFFQRVPRGEILWSHLELLRKY | -1 ± 0.18
GYRKEQERLGIPYDPIQWSTDMVLHWVVWVMKEFSMTDIDLTTLNISGRELCSLNQEDFFQRVPRGEILWSHLELLRKY | -0.219 ± 0.06
GYRKEQERLGIPYDPIQWSTDRVLHWVVWVMKEFSMTDIDLTTLNISGRELCSLNQEDFFQRVPRGEILWSHLELLRKY | -0.998 ± 0.094
GYRKEQERLGIPYDPIQWSTDTVLHWVVWVMKEFSMTDIDLTTLNISGRELCSLNQEDFFQRVPRGEILWSHLELLRKY | -0.875 ± 0.091
GYRKEQERLGIPYDPIQWSTDSVLHWVVWVMKEFSMTDIDLTTLNISGRELCSLNQEDFFQRVPRGEILWSHLELLRKY | -0.646 ± 0.052
GYRKEQERLGIPYDPIQWSTDYVLHWVVWVMKEFSMTDIDLTTLNISGRELCSLNQEDFFQRVPRGEILWSHLELLRKY | -0.763 ± 0.19
GYRKEQERLGIPYDPIQWSTDPVLHWVVWVMKEFSMTDIDLTTLNISGRELCSLNQEDFFQRVPRGEILWSHLELLRKY | -0.991 ± 0.12
GYRKEQERLGIPYDPIQWSTDNVLHWVVWVMKEFSMTDIDLTTLNISGRELCSLNQEDFFQRVPRGEILWSHLELLRKY | -0.039 ± 0.098
GYRKEQERLGIPYDPIQWSTDVVLHWVVWVMKEFSMTDIDLTTLNISGRELCSLNQEDFFQRVPRGEILWSHLELLRKY | -0.992 ± 0.097
GYRKEQERLGIPYDPIQWSTDKVLHWVVWVMKEFSMTDIDLTTLNISGRELCSLNQEDFFQRVPRGEILWSHLELLRKY | -0.787 ± 0.2
